This assay has as its target S. cerevisiae Msh2-Msh6 (S. cerevisiae, UniProt P25847 1-964; Q03834 1-1242). As to the kind of experiment: SPR.

The text below walks through data of PMC9639671 (DNA repair, 2022).

Substitutions are numbered along the chain they refer to. Names and notes keep the numbering of the source.

Chain of S. cerevisiae Msh2-Msh6 (P25847 whole entry, chain 1 of 2): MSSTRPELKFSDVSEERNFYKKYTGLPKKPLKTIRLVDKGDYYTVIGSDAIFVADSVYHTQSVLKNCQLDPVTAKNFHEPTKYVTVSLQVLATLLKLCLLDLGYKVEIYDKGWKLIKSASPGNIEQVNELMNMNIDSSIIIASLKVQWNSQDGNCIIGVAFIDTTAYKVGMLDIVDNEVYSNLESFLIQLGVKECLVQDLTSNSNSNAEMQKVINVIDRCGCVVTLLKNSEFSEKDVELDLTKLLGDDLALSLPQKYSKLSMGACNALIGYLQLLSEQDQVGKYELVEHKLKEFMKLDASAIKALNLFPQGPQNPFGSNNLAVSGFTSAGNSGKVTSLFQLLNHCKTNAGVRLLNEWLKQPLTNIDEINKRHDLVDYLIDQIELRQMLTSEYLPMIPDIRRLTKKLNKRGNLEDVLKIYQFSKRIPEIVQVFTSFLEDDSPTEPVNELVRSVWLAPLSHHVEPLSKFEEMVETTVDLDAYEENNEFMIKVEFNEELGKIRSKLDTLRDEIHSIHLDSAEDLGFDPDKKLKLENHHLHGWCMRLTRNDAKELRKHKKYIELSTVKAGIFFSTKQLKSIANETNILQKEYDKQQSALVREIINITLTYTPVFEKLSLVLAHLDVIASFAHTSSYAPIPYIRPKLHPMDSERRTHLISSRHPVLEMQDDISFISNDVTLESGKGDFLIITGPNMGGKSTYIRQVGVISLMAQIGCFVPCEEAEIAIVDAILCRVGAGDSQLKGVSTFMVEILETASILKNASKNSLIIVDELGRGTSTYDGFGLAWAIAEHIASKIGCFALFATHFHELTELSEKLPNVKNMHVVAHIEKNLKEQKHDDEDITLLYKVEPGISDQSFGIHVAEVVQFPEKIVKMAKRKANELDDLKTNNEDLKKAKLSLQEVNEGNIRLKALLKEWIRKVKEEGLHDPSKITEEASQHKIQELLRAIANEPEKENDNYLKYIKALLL
Chain of S. cerevisiae Msh2-Msh6 (Q03834 whole entry, chain 2 of 2): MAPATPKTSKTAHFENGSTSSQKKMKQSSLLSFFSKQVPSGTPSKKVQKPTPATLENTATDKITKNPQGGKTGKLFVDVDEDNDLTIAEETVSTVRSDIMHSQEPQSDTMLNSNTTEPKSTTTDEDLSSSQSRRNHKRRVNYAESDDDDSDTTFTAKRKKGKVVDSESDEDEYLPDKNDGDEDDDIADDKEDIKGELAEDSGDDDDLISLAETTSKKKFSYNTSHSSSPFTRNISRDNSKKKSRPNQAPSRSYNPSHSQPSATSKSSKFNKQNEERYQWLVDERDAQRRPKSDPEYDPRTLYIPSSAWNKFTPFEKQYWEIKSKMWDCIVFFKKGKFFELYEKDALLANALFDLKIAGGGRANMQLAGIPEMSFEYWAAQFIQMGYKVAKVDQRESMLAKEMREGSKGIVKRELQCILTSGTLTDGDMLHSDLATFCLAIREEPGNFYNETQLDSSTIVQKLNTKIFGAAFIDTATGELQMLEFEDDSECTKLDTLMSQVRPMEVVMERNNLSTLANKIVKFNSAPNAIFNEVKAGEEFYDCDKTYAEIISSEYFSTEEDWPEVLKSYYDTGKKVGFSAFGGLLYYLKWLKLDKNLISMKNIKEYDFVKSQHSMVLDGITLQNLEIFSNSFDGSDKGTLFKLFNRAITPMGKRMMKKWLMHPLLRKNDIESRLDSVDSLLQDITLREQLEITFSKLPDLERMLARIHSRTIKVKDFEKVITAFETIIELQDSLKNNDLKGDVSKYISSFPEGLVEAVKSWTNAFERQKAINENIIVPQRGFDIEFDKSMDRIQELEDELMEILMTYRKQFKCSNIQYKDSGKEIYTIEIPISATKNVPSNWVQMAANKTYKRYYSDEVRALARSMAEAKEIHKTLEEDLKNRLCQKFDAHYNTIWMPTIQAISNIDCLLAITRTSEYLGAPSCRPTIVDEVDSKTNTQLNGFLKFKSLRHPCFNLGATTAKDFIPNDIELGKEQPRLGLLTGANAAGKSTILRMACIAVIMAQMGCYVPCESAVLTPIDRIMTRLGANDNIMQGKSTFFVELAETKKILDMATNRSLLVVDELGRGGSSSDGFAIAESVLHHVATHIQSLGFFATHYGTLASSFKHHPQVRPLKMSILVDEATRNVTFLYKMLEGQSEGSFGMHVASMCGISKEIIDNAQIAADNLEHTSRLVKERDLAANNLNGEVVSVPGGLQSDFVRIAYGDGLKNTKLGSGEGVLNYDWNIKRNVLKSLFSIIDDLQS

B1: wild-type S. cerevisiae Mlh1-Pms1 (complex)
chain 1: MSLRIKALDASVVNKIAAGEIIISPVNALKEMMENSIDANATMIDILVKEGGIKVLQITDNGSGINKADLPILCERFTTSKLQKFEDLSQIQTYGFRGEALASISHVARVTVTTKVKEDRCAWRVSYAEGKMLESPKPVAGKDGTTILVEDLFFNIPSRLRALRSHNDEYSKILDVVGRYAIHSKDIGFSCKKFGDSNYSLSVKPSYTVQDRIRTVFNKSVASNLITFHISKVEDLNLESVDGKVCNLNFISKKSISPIFFINNRLVTCDLLRRALNSVYSNYLPKGNRPFIYLGIVIDPAAVDVNVHPTKREVRFLSQDEIIEKIANQLHAELSAIDTSRTFKASSISTNKPESLIPFNDTIESDRNRKSLRQAQVVENSYTTANSQLRKAKRQENKLVRIDASQAKITSFLSSSQQFNFEGSSTKRQLSEPKVTNVSHSQEAEKLTLNESEQPRDANTINDNDLKDQPKKKQKLGDYKVPSIADDEKNALPISKDGYIRVPKERVNVNLTSIKKLREKVDDSIHRELTDIFANLNYVGVVDEERRLAAIQHDLKLFLIDYGSVCYELFYQIGLTDFANFGKINLQSTNVSDDIVLYNLLSEFDELNDDASKEKIISKIWDMSSMLNEYYSIELVNDGLDNDLKSVKLKSLPLLLKGYIPSLVKLPFFIYRLGKEVDWEDEQECLDGILREIALLYIPDMVPKVDTSDASLSEDEKAQFINRKEHISSLLEHVLFPCIKRRFLAPRHILKDVVEIANLPDLYKVFERC
chain 2: MTQIHQINDIDVHRITSGQVITDLTTAVKELVDNSIDANANQIEIIFKDYGLESIECSDNGDGIDPSNYEFLALKHYTSKIAKFQDVAKVQTLGFRGEALSSLCGIAKLSVITTTSPPKADKLEYDMVGHITSKTTTSRNKGTTVLVSQLFHNLPVRQKEFSKTFKRQFTKCLTVIQGYAIINAAIKFSVWNITPKGKKNLILSTMRNSSMRKNISSVFGAGGMRGLEEVDLVLDLNPFKNRMLGKYTDDPDFLDLDYKIRVKGYISQNSFGCGRNSKDRQFIYVNKRPVEYSTLLKCCNEVYKTFNNVQFPAVFLNLELPMSLIDVNVTPDKRVILLHNERAVIDIFKTTLSDYYNRQELALPKRMCSQSEQQAQKRLKTEVFDDRSTTHESDNENYHTARSESNQSNHAHFNSTTGVIDKSNGTELTSVMDGNYTNVTDVIGSECEVSVDSSVVLDEGNSSTPTKKLPSIKTDSQNLSDLNLNNFSNPEFQNITSPDKARSLEKVVEEPVYFDIDGEKFQEKAVLSQADGLVFVDNECHEHTNDCCHQERRGSTDTEQDDEADSIYAEIEPVEINVRTPLKNSRKSISKDNYRSLSDGLTHRKFEDEILEYNLSTKNFKEISKNGKQMSSIISKRKSEAQENIIKNKDELEDFEQGEKYLTLTVSKNDFKKMEVVGQFNLGFIIVTRKVDNKYDLFIVDQHASDEKYNFETLQAVTVFKSQKLIIPQPVELSVIDELVVLDNLPVFEKNGFKLKIDEEEEFGSRVKLLSLPTSKQTLFDLGDFNELIHLIKEDGGLRRDNIRCSKIRSMFAMRACRSSIMIGKPLNKKTMTRVVHNLSELDKPWNCPHGRPTMRHLMELRDWSSFSKDYEI
For the molecule B1, the binding result is reported as “binds”.

B2: Mlh1-K54C-Pms1 mutant complex (complex, S. cerevisiae)
chain 1: B1 chain 1 with K54C
chain 2: B1 chain 2
On to B2, for which the binding result is recorded as “binds”.
